Substitutions are numbered along the chain they refer to.
B1: PP10761 (antibody, human IgG4 S228P, kappa, V domains shown)
VH: EVQLVESGGGLVQPGGSLRLSCAASGFTFSTYGMSWVRQAPGKGLELVSIINHNGGSTFYPDSVKGRFTISRDNSKNTLYLQMNSLRAEDTAVYYCARDPRHDGYFFDYWGQGTLVTVSS
VL: DIQMTQSPSSLSASVGDRVTITCQASEDIYDRLAWYQQKPGKAPKLLISGATSLETGVPSRFSGSGSGKDYTFTISSLQPEDIATYYCQQYWSVPWTFGGGTKVEIKR
notes: Humanized, human IgG4/kappa; also called VH6665/VL6666
B2: PP10767 (antibody, human IgG4 S228P, kappa, V domains shown)
VH: B1 VH with L11V, G16R, S49A
VL: B1 VL
notes: Humanized, human IgG4/kappa; also called VH6667/VL6666
B3: PP10765 (antibody, human IgG4 S228P, kappa, V domains shown)
VH: B1 VH with S49A, I70V
VL: B1 VL with Q24R, K45N, I48V, T56S, F73L, I83F
notes: Humanized, human IgG4/kappa; also called VH6666/VL6667
B4: PP10762 (antibody, human IgG4 S228P, kappa, V domains shown)
VH: B1 VH
VL: B1 VL with Q24R, K45N, I48V, T56S, F73L, I83F
notes: Humanized, human IgG4/kappa; also called VH6665/VL6667
B5: PP10766 (antibody, human IgG4 S228P, kappa, V domains shown)
VH: B1 VH with L11V, G16R, S49A
VL: B1 VL with K69T
notes: Humanized, human IgG4/kappa; also called VH6667/VL6665
B6: PP10768 (antibody, human IgG4 S228P, kappa, V domains shown)
VH: B1 VH with L11V, G16R, S49A
VL: B1 VL with Q24R, K45N, I48V, T56S, F73L, I83F
notes: Humanized, human IgG4/kappa; also called VH6667/VL6667
B7: PP10764 (antibody, human IgG4 S228P, kappa, V domains shown)
VH: B1 VH with S49A, I70V
VL: B1 VL
notes: Humanized, human IgG4/kappa; also called VH6666/VL6666
B8: PP10760 (antibody, human IgG4 S228P, kappa, V domains shown)
VH: B1 VH
VL: B1 VL with K69T
notes: Humanized, human IgG4/kappa; also called VH6665/VL6665
B9: PP10763 (antibody, human IgG4 S228P, kappa, V domains shown)
VH: B1 VH with S49A, I70V
VL: B1 VL with K69T
notes: Humanized, human IgG4/kappa; also called VH6666/VL6665
B10: PP10759 (antibody, human IgG4 S228P, kappa, V domains shown)
VH: EVQLVESGGGLVQPGGSLKLSCVASGFTFSTYGMSWVRQTPDKRLELVAIINHNGGSTFYPDSVKGRFTVSRDNAKNTLHLQMSSLKSEDTAMYYCARDPRHDGYFFDYWGQGTTLTVSS
VL: DIQMTQSSPSFSVSLGDRVTITCKASEDIYDRLAWYQQKPGNAPRLLISGATSLETGIPSRFSGSRSGKDYTLDINSLQTEDAATYYCQQYWSVPWTFGGGTKLEIKR
notes: expressed in HEK293; also called chimeric antibody PP10759; chimeric parental antibody

Experiments:
[1] = target: T1, human IL-17A (human, UniProt Q16552 20-155, limits assumed); test: blocking ELISA, IL-17RC coated; control IgG pre-mixed with human IL-17A 0.1 ug/ml; bound IL-17A detected
T1 construct: Bought from R&D Systems; also called IL-17 antigen (human IL17A)
T1 sequence (looked up): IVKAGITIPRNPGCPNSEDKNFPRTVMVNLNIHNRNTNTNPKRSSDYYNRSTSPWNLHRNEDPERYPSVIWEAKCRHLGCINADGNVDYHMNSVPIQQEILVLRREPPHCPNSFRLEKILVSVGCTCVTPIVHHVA

[2] = target: T1, human IL-17A; test: blocking ELISA, IL-17RA coated; control IgG pre-mixed with human IL-17A 0.1 ug/ml; bound IL-17A detected
[3] = target: T1, human IL-17A; test: blocking ELISA, IL-17RA coated; control IgG pre-mixed with human IL-17A 0.1 ug/ml; bound IL-17A detected (unblocked signal)
[4] = target: T1, human IL-17A; test: blocking ELISA, IL-17RC coated; control IgG pre-mixed with human IL-17A 0.1 ug/ml; bound IL-17A detected (unblocked signal)
[5] = target: T2, mouse IL-17A (mouse, UniProt Q62386 26-158, limits assumed); test: ELISA, mouse IL-17A coated
T2 sequence (looked up): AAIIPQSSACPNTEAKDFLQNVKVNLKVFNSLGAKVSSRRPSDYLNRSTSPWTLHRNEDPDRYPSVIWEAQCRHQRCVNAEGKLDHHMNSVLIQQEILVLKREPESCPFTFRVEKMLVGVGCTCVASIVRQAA

[6] = target: T1, human IL-17A; test: BLI (Octet Red96), antibody captured on AHC biosensor, human IL-17A in solution, 1:1 model, 25 C
Experimental: Using the Octet method (Fortebio Octet®), the chimeric parental antibody and the […] (i.e. PP10759-PP10768) were evaluated with Octet Red96 at 25° C. These antibodies were captured on anti-Human Fc (AHC) biosensors at a concentration of 10 μg/mL. Loaded biosensors were then dipped into a dilution of antigen (human IL-17A (R&D Systems), 500 nM start, 1:3 down, 7 points). Kinetic constants were calculated using a monovalent (1:1) model. In FIG. 2A, Figure I, II, III and IV show the results of PP10759, PP10760, PP10761 and PP10762, respectively. In FIG. 2B, Figure I, II, III and IV show the results of PP10763, PP10764, PP10765 and PP10766, respectively. In FIG. 2B, Figure I and II show the results of PP10767 and PP10768, respectively. It can be seen that the antibodies (i.e. PP10759-PP10768) bind to IL-17A with high affinity. […] Secukinuma is a human IgG1κ monoclonal antibody that binds to IL-17A made by Novartis.

[7] = target: T1, human IL-17A; test: blocking ELISA, IL-17RC coated; antibody 1 ug/ml pre-mixed with human IL-17A 0.1 ug/ml; bound IL-17A detected
Experimental: (§1) Recombinant human IL-17RA or recombinant human IL-17RC (1 μg/ml) were coated on the plate, overnight at 4° C. in the dark and then blocked with 2% BSA for 1 hour at room temperature to reduce non-specific binding. The antibodies PP10759-PP10768 (1 μg/ml) pre-mixed with human IL-17A (0.1 μg/ml final concentration) were added to the ELISA wells for 1 hour at room temperature. The plate was washed with PBS for three times, and then incubated with anti-IL17A polyclonal Ab-biotin (R&D Systems) for 1 hour followed by SAV-HRP. The plate was washed for three times with PBS. TMB, the HRP substrate, was added to each well for color development for 5 minutes at room temperature. Equal amount of 0.1N HCl stop solution was added to each well to terminate the reaction. Raw OD₄₅₀ data was collected by POLARstar Omega from BMG Labtech.
(§2) It can be seen that the antibodies PP10759-PP10768 can effectively block the interaction between IL-17A and IL-17RA as well as IL-17A and IL-17RC.

[8] = target: T1, human IL-17A; test: blocking ELISA, IL-17RA coated; antibody 1 ug/ml pre-mixed with human IL-17A 0.1 ug/ml; bound IL-17A detected
Experimental: as §1, §2

[9] = target: T1, human IL-17A; test: ELISA, human IL-17A coated at 1 ug/mL, anti-human IgG-HRP detection
Experimental: ELISA plates were coated with 1 μg/mL IL-17 antigen (human IL17A) (R&D Systems) and incubated at 4° C. in the dark overnight. Then it was washed once with 10 mM, pH 7.4 PBS/Tween (0.05%), blocked with PBST containing 2% BSA for 1 hour and incubated at room temperature for 1 h. The antibodies PP10759-PP10768 were diluted in 5-fold increments for a total of eleven data points and were added to the ELISA wells and incubated at room temperature for 1 hour. The plate was washed with PBS for three times, and then incubated with HRP conjugated goat anti-human IgG antibody for 1 hour. The plate was washed three times with PBS. TMB, the HRP substrate, was added to each well for color development for 5 minutes at room temperature. Equal amount of 0.1N HCl stop solution was added to each well to terminate the reaction. Raw OD₄₅₀ data was collected by POLARstar Omega (BMG Labtech). Besides, hFc isotope was regarded as control. It can be seen that the antibodies (i.e. PP10759-PP10768) bind to human IL-17A with high affinity.

| Molecule | Blocking % [1] | Blocking % [2] | OD450 [3] | OD450 [4] | binding result [5] | Kd [6] | koff [6] | kon [6] | Blocking % [7] | OD450 [7] | Blocking % [8] | OD450 [8] | EC50 [9] |
| --- | --- | --- | --- | --- | --- | --- | --- | --- | --- | --- | --- | --- | --- |
| Normal human IgG (antibody) | 0% | 0% | 1.39 OD450 | 0.487 OD450 |  |  |  |  |  |  |  |  |  |
| B1 |  |  |  |  | no binding | < 0.001 nM | < 1e-07 s⁻¹ | 400000 M⁻¹ s⁻¹ | 99.8% | 0.0688 OD450 | 99.7% | 0.0851 OD450 | 8.72 ng/mL |
| B2 |  |  |  |  | no binding | < 0.001 nM | < 1e-07 s⁻¹ | 360000 M⁻¹ s⁻¹ | 99.9% | 0.0684 OD450 | 98.1% | 0.105 OD450 | 7.71 ng/mL |
| B3 |  |  |  |  | no binding | 0.13 nM | 6.6e-05 s⁻¹ | 500000 M⁻¹ s⁻¹ | 95.2% | 0.088 OD450 | 89.9% | 0.213 OD450 | 7.61 ng/mL |
| B4 |  |  |  |  | no binding | < 0.001 nM | < 1e-07 s⁻¹ | 440000 M⁻¹ s⁻¹ | 99.5% | 0.0701 OD450 | 99.6% | 0.0846 OD450 | 8.26 ng/mL |
| B5 |  |  |  |  | no binding | < 0.001 nM | < 1e-07 s⁻¹ | 350000 M⁻¹ s⁻¹ | 100% | 0.0682 OD450 | 94.9% | 0.147 OD450 | 7.35 ng/mL |
| B6 |  |  |  |  | no binding | < 0.001 nM | < 1e-07 s⁻¹ | 370000 M⁻¹ s⁻¹ | 99.9% | 0.0685 OD450 | 99.5% | 0.0869 OD450 | 7.67 ng/mL |
| B7 |  |  |  |  | no binding | < 0.001 nM | < 1e-07 s⁻¹ | 450000 M⁻¹ s⁻¹ | 98.9% | 0.0725 OD450 | 96.5% | 0.126 OD450 | 6.61 ng/mL |
| B8 |  |  |  |  | no binding | 0.31 nM | 0.00015 s⁻¹ | 490000 M⁻¹ s⁻¹ | 98% | 0.0762 OD450 | 97.8% | 0.109 OD450 | 9.44 ng/mL |
| B9 |  |  |  |  | no binding | 0.36 nM | 0.00016 s⁻¹ | 460000 M⁻¹ s⁻¹ | 98.9% | 0.0721 OD450 | 90.9% | 0.104 OD450 | 7.28 ng/mL |
| B10 |  |  |  |  | no binding | 1.1 nM | 0.00053 s⁻¹ | 480000 M⁻¹ s⁻¹ | 95.2% | 0.0888 OD450 | 99.5% | 0.0872 OD450 | 5.83 ng/mL |

From US20210309735A1 (published 2021)
